Source: article doi:10.1101/2020.08.15.252130
Read-outs that look alike come from different tables or passages of the source.

T1: LS2 linker-RRM2 (Drosophila melanogaster, UniProt Q9W1T4 204-325)
T1 sequence: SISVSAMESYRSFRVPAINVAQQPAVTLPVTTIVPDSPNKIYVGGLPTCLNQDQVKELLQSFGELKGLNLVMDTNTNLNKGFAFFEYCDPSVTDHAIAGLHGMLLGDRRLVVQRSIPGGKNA


Key:
Assay in all cases: NMR
[1] = target: LS2 RRM2 (Drosophila melanogaster, UniProt Q9W1T4 242-319)
[2] = target: T2, LS2 RRM1 (Drosophila melanogaster, UniProt Q9W1T4 110-204)
[3] = target: LS2 RRM1,2 (Drosophila melanogaster, UniProt Q9W1T4 110-325)
[4] = target: T1, LS2 linker-RRM2
[5] = target: T2, LS2 RRM1; remark: listed apart in the source

Row | Binder | binding result [1] | binding result [2] | binding result [3] | binding result [4] | binding result [5]
1 | CGUAUGA (ssRNA) [7-mer (3' end of 21-mer)] | no binding | – | – | – | –
2 | GGUGGUGG (structured_RNA) [8-mer] | – | binds | – | – | –
3 | GGGGAGGAGGGGGGCGUAUGA (structured_RNA) [21-mer G4 RNA] | binds | – | binds | binds | binds
4 | GGGUGGUGGAGGGG (structured_RNA) [14-mer] | no binding | binds | – | – | –
